Measurements from the supplement of paper PMC12042874.
± gives the uncertainty stated by the source.

Assay: amyloid nucleation score (Sup35N fusion, yeast selection) (log enrichment); library NNK2; higher = more nucleation; inactive = no reads after selection
Method in brief: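 The nucleation score, computed with DiMSum, is the log enrichment of output over input reads, centred on the mode score of non-aggregating sequences. Sequences with under 100 input reads were dropped. Reads were generated by Illumina sequencing of plasmid inserts from psi-negative yeast with Sup35N fused to peptides of 20 random codons, induced with 100 μM copper sulfate for 24 hours and grown 7 days at 30°C on medium lacking adenine and uracil.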

PQINMGVLAGGVYHYSTCGK gave an amyloid nucleation score of 0.196 ± 0.74.

With PQSWIVHRTIVHGSLGSCFP the amyloid nucleation score was -0.4 ± 0.3.

In the case of PRDRLSSGPLQWHGFIIGYV, the amyloid nucleation score is reported as 0.676 ± 0.23.

Work on PRIFFYVNLFLRHWPEIKML yielded an amyloid nucleation score of -2.08 ± 1.1.

PRLRAAG showed an amyloid nucleation score of 0.758 ± 0.26.

PRNRQRSNSTDCGHLITYWD gave an amyloid nucleation score of 0.205 ± 0.62.

In the case of PRRCSISIEFRDE, the amyloid nucleation score is reported as -0.718 ± 0.76.

PRSNCLHCFLLPLSNIVLCA gave an amyloid nucleation score of 4.66 ± 0.049.

In the case of PRSQYRITYDYVCCRVMYKY, the amyloid nucleation score is reported as 0.392 ± 0.46.

For PRSYWRSYWAKVLDYQLIPR, the amyloid nucleation score was 3.55 ± 0.07.

In the case of PSDFYWSMFEQYCHGV, the amyloid nucleation score is reported as 4.51 ± 0.05.

PSGGFTTSMVTDDIDVSARH gave an amyloid nucleation score of 0.708 ± 0.53.

PSIKCTLFYSVTYLFMWGRK showed an amyloid nucleation score of -0.406 ± 0.63.

In the case of PSLRSSCCWNFRPP, the amyloid nucleation score is reported as 0.175 ± 0.42.

Work on PSNKYSDVPSNAQSGFAWYG yielded an amyloid nucleation score of 0.56 ± 0.57.

PSNTIYHFIAELNEYETPRF showed an amyloid nucleation score of 0.426 ± 0.15.

PSPVIWPISSPGFQSLCICS showed an amyloid nucleation score of -0.38 ± 0.63.

With PSQHSWGWARCLQDCDSMPG the amyloid nucleation score was 0.591 ± 0.34.

With PSQVL the amyloid nucleation score was 0.992 ± 0.52.

Substance PSRMCSCCPLRGSCKDMACR has an amyloid nucleation score of 0.256 ± 0.18.

Work on PSSDGIRITSDGILMSVDNG yielded an amyloid nucleation score of 0.918 ± 0.58.

In the case of PSSKVL, the amyloid nucleation score is reported as 0.024 ± 0.55.

For PSWGSLCMSQNHMHLEV, the amyloid nucleation score was -0.087 ± 0.42.

PTMHVRVSG gave an amyloid nucleation score of 0.495 ± 0.28.

In the case of PTSFLKSIVGVIWISANLSR, the amyloid nucleation score is reported as 0.696 ± 0.43.

PVALLAIRMNIDVVN gave an amyloid nucleation score of -0.353 ± 0.49.

Work on PVCGVIALDSVTLCSSGMLL yielded an amyloid nucleation score of 0.334 ± 0.39.

PVIYSF gave an amyloid nucleation score of 7.115 ± 0.031.

In the case of PVNCGWQGEDRTVEILHAHG, the amyloid nucleation score is reported as 1.13 ± 0.28.

PWFMFPCRHRYRQYLWCFCA showed an amyloid nucleation score of 2.52 ± 0.068.

In the case of PWNLLGWLRRS, the amyloid nucleation score is reported as 0.108 ± 0.23.

PWTRWGVSFAFKAVNKCVHV showed an amyloid nucleation score of -1 ± 0.76.

PWYGSQGNTKSCYSFVMSLP gave an amyloid nucleation score of 0.06 ± 0.34.

PYIEVY showed an amyloid nucleation score of 0.926 ± 0.52.

Substance PYQAIHYVNRCGFWLTASCA has an amyloid nucleation score of 0.36 ± 0.62.

PYQSTCSDRSFYVCVCELHW gave an amyloid nucleation score of 0.241 ± 0.8.

With PYSFSV the amyloid nucleation score was “inactive”.

In the case of QCGWDFLFIVMCKFVQRRCS, the amyloid nucleation score is reported as 0.35 ± 0.8.

Substance QCMVVQYD has an amyloid nucleation score of -0.394 ± 0.65.

With QCWGMERSERSIRFVTRFFR the amyloid nucleation score was 3.5 ± 0.1.

With QDFCSEGCLEDVSSLY the amyloid nucleation score was -1.37 ± 0.49.

Work on QEALLWTLNTLKKLSGRGST yielded an amyloid nucleation score of -1.44 ± 0.55.

QEFLWWGREQLGVCCLGVGR showed an amyloid nucleation score of 2.88 ± 0.14.

For QELIDIGTNSFVDCCS, the amyloid nucleation score was “inactive”.

For QERSILGLHWYICRVAKLSF, the amyloid nucleation score was 0.196 ± 0.64.

QFGYRCTTPC showed an amyloid nucleation score of 0.522 ± 0.3.

QFLEFHIP showed an amyloid nucleation score of -0.223 ± 0.49.

QFLSYCFWIGNPLVNFINAN gave an amyloid nucleation score of 5.874 ± 0.039.

With QFRLQWGLLVQCAGDSVLVM the amyloid nucleation score was -0.085 ± 0.61.

In the case of QFSYLYLVMASRSLTAVIIV, the amyloid nucleation score is reported as -0.887 ± 0.3.

Work on QFVHRYGDHNAGVLPSYRKS yielded an amyloid nucleation score of 5.22 ± 0.066.

Work on QFWHKSVSTCLWCCSVAGSW yielded an amyloid nucleation score of 8.73 ± 0.071.

For QGCLRQVQMRDRATRIGEVI, the amyloid nucleation score was 0.47 ± 0.25.

QGRGLRYQH gave an amyloid nucleation score of 0.166 ± 0.76.

In the case of QHKDLYLW, the amyloid nucleation score is reported as “inactive”.

QHLLLCAAM gave an amyloid nucleation score of 0.399 ± 0.74.

With QIVAFY the amyloid nucleation score was “inactive”.

With QIYGCNWLCLQVRHPV the amyloid nucleation score was 8.061 ± 0.079.

With QIYSMDMQRMNKCCCEDGEV the amyloid nucleation score was “inactive”.

For QKFVLSRPDLDRFYCSMDCM, the amyloid nucleation score was -0.185 ± 0.63.

Work on QLMDGSRSLFMALRRRFLLV yielded an amyloid nucleation score of 0.691 ± 0.74.

With QLPNPKNMISIGNYWKQRSF the amyloid nucleation score was -1.47 ± 1.1.

QLVLT showed an amyloid nucleation score of 1.14 ± 0.21.

With QMIWKIVCING the amyloid nucleation score was 4.55 ± 0.097.

In the case of QNAMGTSVDYNVNFVYVGNL, the amyloid nucleation score is reported as 3.38 ± 0.089.

QNDLIWSSW showed an amyloid nucleation score of -1.32 ± 0.49.

Substance QNGAALRLIGIWGNGGCK has an amyloid nucleation score of -0.003 ± 1.1.

For QNGTERGFFCSKLNRSVTLL, the amyloid nucleation score was 0.358 ± 0.65.

QNHVRYQGRLPGSCLGCKYR gave an amyloid nucleation score of -0.488 ± 1.

With QNWVCMNRVYDLKDTYEIDL the amyloid nucleation score was -0.526 ± 0.35.

Substance QNYRNSGVKLHTRRIISCNV has an amyloid nucleation score of -0.526 ± 0.36.

For QPCQSNSINDIHRRAGFGPL, the amyloid nucleation score was -0.437 ± 0.64.

Work on QPGSLMGNRPKESVRASRAR yielded an amyloid nucleation score of -0.104 ± 0.45.

In the case of QQKPVLGLCFWERAGHLSNR, the amyloid nucleation score is reported as “inactive”.

QRYCRA showed an amyloid nucleation score of 0.94 ± 0.23.

With QSESVVRHWGMRWR the amyloid nucleation score was 0.729 ± 0.29.

With QSETN the amyloid nucleation score was -0.264 ± 0.29.

QSGLIHY gave an amyloid nucleation score of -0.894 ± 0.78.

In the case of QSLVIN, the amyloid nucleation score is reported as 4.58 ± 0.05.

For QSVYLPLRNVIFPVVVSKCE, the amyloid nucleation score was “inactive”.

QTCCTSNEQEFVALA showed an amyloid nucleation score of 0.414 ± 0.32.

With QTMMTTRKCSPLRLVLSQRL the amyloid nucleation score was -0.161 ± 1.1.

QVCFHDQ gave an amyloid nucleation score of -0.589 ± 0.48.

With QVKLFYRLRPSFLCVFPFNL the amyloid nucleation score was “inactive”.

For QVLISFG, the amyloid nucleation score was -2.41 ± 1.1.

QVVDGWWGNYFIV showed an amyloid nucleation score of -1.92 ± 0.78.

QWSAILFSMRWFVKKSEFSC gave an amyloid nucleation score of 3.48 ± 0.052.
